Data published in patent WO2021229104A1 (dated 2021).
One block for each binder: values may come before it.

Key:
[1] = biological target: T1, recombinant biotinylated CD38 protein (Homo sapiens (Human), UniProt P28907 43-300, biotinylated (site not stated)); assay: BLI (Octet), biotinylated recombinant CD38 on streptavidin sensors, seven nanobody concentrations, 1:1 model
T1 construct: also called biotinylated CD38 antigen; biotin-labelled recombinant CD38 protein

[2] = biological target: T2, human CD38 receptor expressed on RPMI-8226 multiple myeloma cells and other CD38+ cell lines (human, UniProt P28907 1-300); assay: saturation binding of radiolabelled nanobody on CD38+ RPMI-8226 cells, 1 hour at 4 C
T2 construct: Endogenous CD38 on human cell lines; also called cyclic ADP-Ribose Hydrolase 1; ADPRC1

Kd [1]: 0.7 nM
B1: anti-CD38 nanobody 2F8 (Nb2F8) with C-terminal hexahistidine tag (VHH)
VHH: QVQLVESGGGSVQAGGSLRLSCAASGYTDSDYIMAWFRQAPGKEREVVATIYIGGTYIHYADSVKGRFTISRDNAENTVYLQMNNLKPEDTAMYYCAATKWRPFISTRAAEYNYWGQGTLVTVSS
notes: also called sdAb 2F8

Kd [2]: 16.7 nM
B2: 111In-DTPA-Nb2F8 (untagged Nb2F8 conjugated to CHX-A''-DTPA and labelled with Indium-111) (VHH)
VHH: B1 VHH
modifications: CHX-A''-DTPA conjugated to the free epsilon-amino groups of lysines; chelated Indium-111
notes: also called m In-DTPA-Nb2F8; ul In-DTPA-Nb2F8
